# Measurements as given in patent publication US11608380B2, “Anti-EGFRvIII antibodies and uses thereof” (REGENERON PHARMACEUTICALS, INC., priority 2014, dated 2023).
# Where two headings read alike, the source gives them in different places.
# B1: H1H2195P: human IgG1 Fc anti-EGFRvIII antibody; HCVR/LCVR SEQ ID NOs 18/26 (antibody, V domains shown)
# VH: QVQLVESGGGVVQPGRSRRLSCVGSGFIFSSYGMHWVRQAPGKGLEWVALIFYDGSNEYYVDSVKGRFTISRDNSKNTLYLQMNSLRAEDTAVYYCAREGYSQRYKYYFGMDVWGQGTTVTVSS
# VL: DIQMTQSPSSVSASVGDRVTITCRASQGISSWLAWYQQQPGKAPKLLIYAASSLQSGVPSRFSGSGSGTDFTLTISSLQPEDFATYYCQQTNSFPLTFGGGTKVEIKR
# modifications: human IgG1 Fc
# B2: H1H1912N: human IgG1 Fc anti-EGFRvIII antibody with variable domains 1912; HCVR/LCVR SEQ ID NOs 66/74 (antibody, V domains shown)
# VH: EVQLVESGGGLVQPGRSLRLSCAASGFTFDDYAMHWVRQVPGKGLEWVSGISWNSGSIGYADSVKGRFTISRDNAKNSLYLQMNSLRAEDTALYYCAKDIHDYGKDYYYYYGMDVWGQGTTVTVSS
# VL: EIALTQSPGTLSLSPGERATLSCRASQSVSSTYLAWYQQKPGQAPRLLIYGASSRATGIPDRFSGSGSGTDFTLTISRLEPEDFAVYYCQQYDSSPITFGQGTRLEIK
# modifications: human IgG1 Fc
# B3: H1H1911N: human IgG1 Fc anti-EGFRvIII antibody with variable domains 1911; HCVR/LCVR SEQ ID NOs 50/58 (antibody, V domains shown)
# VH: QVQLVESGGGVVQPGRSLRLSCAASGFTFSRYGIHWVRQAPGKGLEWVAVIWHDGSNKYYADSVKGRFTISRDNSKNTLYLQMTSLRAEDTAVYYCARDGLEIRDHYYYGMDVWGQGTTVTVSS
# VL: DIQMTQSPSTLSASVGDRVTITCRASQSTSSWLAWYQQKPGKAPTLLIYKASSLESGVPSKFSGSGSGTEFTLTISSLQPDDFATYYCQQYNRYSRTFGQGTKVEIK
# modifications: human IgG1 Fc
# Experiments:
# EGFRvIII-mFc [1] = assay type: binding, human; details: 37° C., receptor-capture, EGFRvIII-mFc captured
# Chain of EGFRvIII-mFc (as listed by the source): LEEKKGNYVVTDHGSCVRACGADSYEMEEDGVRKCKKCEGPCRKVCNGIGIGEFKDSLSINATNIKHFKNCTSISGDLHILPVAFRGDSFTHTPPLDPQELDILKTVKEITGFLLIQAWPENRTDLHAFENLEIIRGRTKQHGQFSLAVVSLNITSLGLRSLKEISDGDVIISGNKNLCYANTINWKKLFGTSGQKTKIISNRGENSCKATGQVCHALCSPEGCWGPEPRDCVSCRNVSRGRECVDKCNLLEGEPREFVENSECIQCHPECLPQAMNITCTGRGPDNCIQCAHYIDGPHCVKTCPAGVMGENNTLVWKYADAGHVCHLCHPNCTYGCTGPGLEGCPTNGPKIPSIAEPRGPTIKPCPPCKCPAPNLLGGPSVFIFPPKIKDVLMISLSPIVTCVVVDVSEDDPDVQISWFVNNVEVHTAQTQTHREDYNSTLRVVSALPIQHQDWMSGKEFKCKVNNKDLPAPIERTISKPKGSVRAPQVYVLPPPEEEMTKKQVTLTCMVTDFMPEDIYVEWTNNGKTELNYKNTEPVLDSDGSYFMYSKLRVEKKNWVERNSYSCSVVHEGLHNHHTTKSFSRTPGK
# Experimental: (§1) Measurements were conducted on a T100 BIACORE™ instrument. […] In the receptor-capture format, either EGFRvIII-mFc or EGFR-mFc, was captured on the BIACORE™ chip and the respective antibodies flowed over. Kinetic association (ka) and dissociation (kd) rate constants were determined by processing and fitting the data to a 1:1 binding model using Scrubber 2.0 curve fitting software. Binding dissociation equilibrium constants (KD) and dissociative half-lives (t1/2) were calculated from the kinetic rate constants as: KD (M)=kd/ka; and t1/2 (min)=ln 2/(60*kd).
# EGFRvIII-mmh = EGFRvIII-mmh (Homo sapiens, UniProt P00533, DELINS30-297G); assay: SPR (BIACORE) binding kinetics, mAb-capture format; details: 37° C., NB=no binding; for ka: analyte EGFRvIII-mmh (monomeric); for kd: analyte EGFRvIII-mmh
# Experimental: as §1
# EGFR-mFc [2] = molecular target: T1, EGFR-mFc (Homo sapiens, UniProt P00533); assay: SPR (BIACORE) binding kinetics, mAb-capture format; details: 37° C., NB=no binding
# EGFR-mFc [3] = molecular target: T1, EGFR-mFc; assay: SPR (BIACORE) binding kinetics, receptor-capture format; details: 37° C., EGFR-mFc captured, NB=no binding
# Experimental: as §1
# [4] = molecular target: junctional peptide (J-peptide) (Homo sapiens, UniProt P00533, DELINS30-297G); assay: Antibody specificity by ELISA; details: ELISA binding
# Experimental: (§2) To further characterize anti-hEGFRvIII mAbs, their binding specificity was examined by ELISA. […] For the junctional peptides that were linked to biotin either at C-terminal (SEQ ID NO:149) or N-terminal (SEQ ID NO:150) via a linker, plates were pre-coated with avidin. Also, coated was an irrelevant peptide (control peptide) with or without biotin at its N-terminal. Anti-EGFRvIII antibodies as well as an isotype control antibody were added to coated plates and allowed to incubate for 1 hour at 25° C. The plates were then washed and bound anti-EGFRvIII mAbs were detected with anti-human Fc antibodies conjugated with horse-radish peroxidase (HRP). […] Data analysis used a sigmoidal dose-response model within PRISM™ software.
# N-term biotin J-peptide = N-term biotin J-peptide (Homo sapiens, UniProt P00533, DELINS30-297G); assay: Antibody specificity by ELISA; details: ELISA binding, avidin pre-coated plates
# Experimental: as §2
# C-term biotin J-peptide = C-term biotin J-peptide (Homo sapiens, UniProt P00533, DELINS30-297G); assay: Antibody specificity by ELISA; details: ELISA binding, avidin pre-coated plates
# Experimental: as §2
# Control peptide = assay: Antibody specificity by ELISA; details: ELISA binding, irrelevant peptide
# Experimental: (§3) To further characterize anti-hEGFRvIII mAbs, their binding specificity was examined by ELISA. […] For the junctional peptides that were linked to biotin either at C-terminal (SEQ ID NO:149) or N-terminal (SEQ ID NO:150) via a linker, plates were pre-coated with avidin. Also, coated was an irrelevant peptide (control peptide) with or without biotin at its N-terminal. Anti-EGFRvIII antibodies as well as an isotype control antibody were added to coated plates and allowed to incubate for 1 hour at 25° C. The plates were then washed and bound anti-EGFRvIII mAbs were detected with anti-human Fc antibodies conjugated with horse-radish peroxidase (HRP). Plates were developed with a tetra-methyl-benzidine (TMB) substrate solution to produce a colorimetric reaction and neutralized with sulfuric acid before reading absorbance at 450 nm on a VICTOR™ X5 plate reader. Data analysis used a sigmoidal dose-response model within PRISM™ software. […] NT: Not tested. Controls I-III: As described above.
# [5] = system: N-term Biotin control peptide; assay: Antibody specificity by ELISA; details: ELISA binding, irrelevant peptide with N-terminal biotin
# Experimental: as §3
# HEK293 cells = assay: FACS cell binding selectivity; assay type: cell-based; details: 10 μg/ml
# Experimental: To determine the specificity of the anti-EGFRvIII mAbs, their binding to HEK293, HEK293 cells expressing EGFRvIII (HEK293/EGFRvIII) and A431 cells, was analyzed by fluorescence activated cell sorting (FACS). HEK293/EGFRvIII cells were prepared by transfecting HEK293 cells with neomycin resistant DNA vectors constitutively expressing full-length hEGFRvIII (SEQ ID NO:147) using LIPOFECTAMINE™ 2000 transfection reagent (INVITROGEN™). At two days post-transfection, cells were placed under G418 selection for approximately two weeks. Populations positively expressing EGFRvIII were isolated via fluorescence activated cell sorting (FACS). The HEK293 cells expressing ˜3×10^6 copies of EGFRvIII per cell were used in the experiment. Briefly, the anti-EGFRvIII antibodies at 10 μg/ml were incubated with cells for 30 minutes at room temperature, washed, incubated with secondary antibody, i.e., phycoerythrin (PE)-labeled goat F(ab′)2 against human IgG (cat #109-116-170, Jackson ImmunoResearch Laboratories), followed by a final wash before FACS analysis. In another set of experiment, anti-EGFRvIII antibodies were directly conjugated via their lysine residues with the fluorescent dye, ALEXA FLUOR® 488 Dye (INVITROGEN™), thereby eliminating the step using the secondary antibody. […] Controls I, II, III, IV and V are described above. MFI: Mean Fluorescence Intensity.
# EGFRvIII-mFc [6] = assay: SPR (BIACORE) binding kinetics, mAb-capture format; parameters: species or system human; details: 37° C., NB=no binding; for ka: analyte EGFRvIII-mFc (dimeric); for kd: analyte EGFRvIII-mFc
# EGFR-mmh = EGFR-mmh (Homo sapiens, UniProt P00533); assay: SPR (BIACORE) binding kinetics, mAb-capture format; details: 37° C., NB=no binding
# HEK293/EGFRvIII cells = assay: Internalization of anti-EGFRvIII mAbs; assay type: cell-based, human; details: 37° C., 1 h
# Experimental: Anti-EGFRvIII mAbs (10 ug/ml) were incubated with HEK293/[…] (see Example 7, supra) cells for 2 hours on ice followed by two PBS washes. Cells were then subjected to a 30-min incubation on ice with secondary DYLIGHT™ 488-conjugated anti-human IgG Fab fragments (Jackson ImmunoResearch Laboratories) followed by two additional PBS washes. Antibodies were allowed to internalize for 1 h at 37° C. in internalization buffer (PBS+FBS) or remained at 4° C. Cells were fixed in 4% formaldehyde, and nuclei stained with DRAQ5® DNA dye (Cell Signaling Technology, Inc.). Images were acquired at 40× on the IMAGEXPRESS™ high content system (Molecular Devices) and internalized vesicles were quantitated using Columbus software (Perkin Elmer).
# [7] = directly labeled (ALEXA FLUOR 488) antibodies
molecule,measurement,setting,value
B1,ka,EGFRvIII-mFc [1],237000 M⁻¹ s⁻¹
same,kd,EGFRvIII-mFc [1],2.53e-05 s⁻¹
same,ka,EGFRvIII-mmh,64800 M⁻¹ s⁻¹
same,kd,EGFRvIII-mmh,0.000694 s⁻¹
same,ka,EGFR-mFc [2]; analyte EGFR-mFc (dimeric),92000 M⁻¹ s⁻¹
same,kd,EGFR-mFc [2]; analyte EGFR-mFc,0.000189 s⁻¹
same,ka,EGFR-mFc [3],225000 M⁻¹ s⁻¹
same,kd,EGFR-mFc [3],5.2e-05 s⁻¹
same,EC50,[4],> 10 nM
same,EC50,N-term biotin J-peptide,> 10 nM
same,EC50,C-term biotin J-peptide,> 10 nM
same,EC50,Control peptide,> 10 nM
same,EC50,[5],> 10 nM
same,Parental HEK293 MFI,HEK293 cells; secondary PE-labeled anti-Fc,1176
same,ka,EGFRvIII-mFc [6],102000 M⁻¹ s⁻¹
same,kd,EGFRvIII-mFc [6],0.000113 s⁻¹
same,ka,EGFR-mmh; analyte EGFR-mmh (monomeric),56600 M⁻¹ s⁻¹
same,kd,EGFR-mmh; analyte EGFR-mmh,0.000523 s⁻¹
B2,ka,EGFRvIII-mFc [1],99000 M⁻¹ s⁻¹
same,kd,EGFRvIII-mFc [1],0.000537 s⁻¹
same,internalization,HEK293/EGFRvIII cells,Internalization was also observed
same,ka,EGFRvIII-mmh,18300 M⁻¹ s⁻¹
same,kd,EGFRvIII-mmh,0.0164 s⁻¹
same,ka,EGFR-mFc [3],39900 M⁻¹ s⁻¹
same,kd,EGFR-mFc [3],0.000914 s⁻¹
same,EC50,[4],> 10 nM
same,EC50,N-term biotin J-peptide,> 10 nM
same,EC50,C-term biotin J-peptide,> 10 nM
same,EC50,Control peptide,> 10 nM
same,EC50,[5],> 10 nM
same,Parental HEK293 MFI,HEK293 cells; [7],3727
same,ka,EGFRvIII-mFc [6],20400 M⁻¹ s⁻¹
same,kd,EGFRvIII-mFc [6],0.000971 s⁻¹
B3,ka,EGFRvIII-mFc [1],32900 M⁻¹ s⁻¹
same,kd,EGFRvIII-mFc [1],0.000643 s⁻¹
same,internalization,HEK293/EGFRvIII cells,Internalization was also observed
same,ka,EGFR-mFc [3],7770 M⁻¹ s⁻¹
same,kd,EGFR-mFc [3],0.00174 s⁻¹
same,EC50,[4],> 10 nM
same,EC50,N-term biotin J-peptide,> 10 nM
same,EC50,C-term biotin J-peptide,> 10 nM
same,EC50,Control peptide,> 10 nM
same,EC50,[5],> 10 nM
same,Parental HEK293 MFI,HEK293 cells; [7],3593
same,Parental HEK293 MFI,HEK293 cells; secondary PE-labeled anti-Fc,1812
